This note sets out measurements from the array DNA melting data of Ke et al..

A word on the Tm: it is the temperature at the midpoint of the melting transition.

This data set is described as follows: melting temperature; melt of duplexes. The following applies: sodium 0.0675 M; strand 1 µM.
Consider “CGACGTGCTTGATGTGCTG+CAGCACATACCGCACGTCG ((((((((...((((((((+))))))))...))))))))”, for which the Tm is 48.4 °C.

Turning to “CGACGTGCCTTATGTGCTG+CAGCACATGCCGCACGTCG ((((((((...((((((((+))))))))...))))))))”, the Tm came out at 46.9 °C.

Consider “CGACGTGCGAGATGTGCTG+CAGCACATCCTGCACGTCG ((((((((..(((((((((+)))))))))..))))))))”, for which the Tm was determined as 55.6 °C.

Turning to “CGACGTGCAGAATGTGCTG+CAGCACATCACGCACGTCG ((((((((...((((((((+))))))))...))))))))”, the Tm is 50.1 °C.

As for “CGACGTGCTCCATGTGCTG+CAGCACATTATGCACGTCG ((((((((...((((((((+))))))))...))))))))”, the Tm was determined as 47.6 °C.

Take “CGACGTGCTTCATGTGCTG+CAGCACATTGTGCACGTCG ((((((((...((((((((+))))))))...))))))))”: the Tm was 44.4 °C.

With “CGACGTGCGTAATGTGCTG+CAGCACATATGGCACGTCG ((((((((...((((((((+))))))))...))))))))”, the Tm amounted to 51 °C.

As to “CGACGTGCGTGATGTGCTG+CAGCACATAGAGCACGTCG ((((((((...((((((((+))))))))...))))))))”, the Tm amounted to 53.1 °C.

As to “CGACGTGCTGAATGTGCTG+CAGCACATATCGCACGTCG ((((((((...((((((((+))))))))...))))))))”, the Tm was found to be 50.2 °C.

Take “CGACGTGCGAAATGTGCTG+CAGCACATAGAGCACGTCG ((((((((...((((((((+))))))))...))))))))”: the Tm stood at 56.2 °C.

On to “CGACGTGCCCTATGTGCTG+CAGCACATACAGCACGTCG ((((((((..(((((((((+)))))))))..))))))))”, for which the Tm amounted to 48.8 °C.

In the case of “CGACGTGCCAAATGTGCTG+CAGCACATGGGGCACGTCG (((((((((..((((((((+))))))))..)))))))))”, the Tm came to 56.6 °C.

With “CGACGTGCCATATGTGCTG+CAGCACATTTTGCACGTCG ((((((((.(.((((((((+)))))))).).))))))))”, the Tm is 49.6 °C.

For the substance “CGACGTGCCGGATGTGCTG+CAGCACATCTAGCACGTCG ((((((((..(((((((((+)))))))))..))))))))”, the Tm was found to be 55 °C.

As for “CGACGTGCGATATGTGCTG+CAGCACATCAGGCACGTCG ((((((((...((((((((+))))))))...))))))))”, the Tm was found to be 49.5 °C.

For “CGACGTGCCGAATGTGCTG+CAGCACATGTCGCACGTCG ((((((((...((((((((+))))))))...))))))))”, the Tm turned out to be 51.4 °C.

Consider “CGACGTGCCATATGTGCTG+CAGCACATGCGGCACGTCG (((((((((..((((((((+))))))))..)))))))))”, for which the Tm was found to be 54.1 °C.

Turning to “CGACGTGCTCAATGTGCTG+CAGCACATGACGCACGTCG ((((((((...((((((((+))))))))...))))))))”, the Tm turned out to be 48.7 °C.

As for “CGACGTGCTGGATGTGCTG+CAGCACATCAGGCACGTCG ((((((((..(((((((((+)))))))))..))))))))”, the Tm was found to be 56.7 °C.

With “CGACGTGCGCAATGTGCTG+CAGCACATGTTGCACGTCG ((((((((...((((((((+))))))))...))))))))”, the Tm was determined as 51.5 °C.

Turning to “CGACGTGCTTTATGTGCTG+CAGCACATATTGCACGTCG ((((((((..(((((((((+)))))))))..))))))))”, the Tm worked out at 51.2 °C.

As to “CGACGTGCCGAATGTGCTG+CAGCACATTCGGCACGTCG (((((((((((((((((((+)))))))))))))))))))”, the Tm stood at 66.5 °C.

“CGACGTGCTACATGTGCTG+CAGCACATTACGCACGTCG ((((((((...((((((((+))))))))...))))))))”: the Tm came out at 48.7 °C.

As to “CGACGTGCTTTATGTGCTG+CAGCACATTAAGCACGTCG ((((((((((.((((((((+)))))))).))))))))))”, the Tm is 55.2 °C.

With “CGACGTGCAGTATGTGCTG+CAGCACATTTAGCACGTCG ((((((((...((((((((+))))))))...))))))))”, the Tm was 48.6 °C.

With “CGACGTGCTCCATGTGCTG+CAGCACATGTTGCACGTCG ((((((((..(((((((((+)))))))))..))))))))”, the Tm was found to be 52.7 °C.

For the substance “CGACGTGCAAAATGTGCTG+CAGCACATGAAGCACGTCG ((((((((...((((((((+))))))))...))))))))”, the Tm turned out to be 53.7 °C.

In the case of “CGACGTGCTGCATGTGCTG+CAGCACATTTGGCACGTCG ((((((((...((((((((+))))))))...))))))))”, the Tm came out at 49.1 °C.

With “CGACGTGCTGCATGTGCTG+CAGCACATATTGCACGTCG ((((((((...((((((((+))))))))...))))))))”, the Tm is 49.3 °C.

On to “CGACGTGCCTGATGTGCTG+CAGCACATTTTGCACGTCG ((((((((...((((((((+))))))))...))))))))”, for which the Tm was determined as 48.8 °C.

Regarding “CGACGTGCCGTATGTGCTG+CAGCACATGTGGCACGTCG (((((((((..((((((((+))))))))..)))))))))”, the Tm worked out at 55.7 °C.

In the case of “CGACGTGCTCCATGTGCTG+CAGCACATGTGGCACGTCG ((((((((..(((((((((+)))))))))..))))))))”, the Tm worked out at 53.8 °C.

For “CGACGTGCTAAATGTGCTG+CAGCACATCGAGCACGTCG (((((((((..((((((((+))))))))..)))))))))”, the Tm amounted to 51.8 °C.

On to “CGACGTGCGGCATGTGCTG+CAGCACATCCCGCACGTCG ((((((((((.((((((((+)))))))).))))))))))”, for which the Tm was 58.3 °C.

In the case of “CGACGTGCCGGATGTGCTG+CAGCACATAGCGCACGTCG ((((((((...((((((((+))))))))...))))))))”, the Tm worked out at 49.9 °C.

Regarding “CGACGTGCAGGATGTGCTG+CAGCACATACGGCACGTCG ((((((((.(.((((((((+)))))))).).))))))))”, the melting temperature (Tm) amounted to 56.1 °C.

Take “CGACGTGCAAAATGTGCTG+CAGCACATCATGCACGTCG (((((((((..((((((((+))))))))..)))))))))”: the Tm amounted to 49.9 °C.

“CGACGTGCATAATGTGCTG+CAGCACATCGGGCACGTCG ((((((((...((((((((+))))))))...))))))))”: the Tm came to 48.2 °C.

Regarding “CGACGTGCCGGATGTGCTG+CAGCACATCCGGCACGTCG (((((((((((((((((((+)))))))))))))))))))”, the Tm is 68.2 °C.

As to “CGACGTGCCATATGTGCTG+CAGCACATAACGCACGTCG ((((((((..(((((((((+)))))))))..))))))))”, the Tm worked out at 49.1 °C.

As to “CGACGTGCTAGATGTGCTG+CAGCACATCCTGCACGTCG ((((((((..(((((((((+)))))))))..))))))))”, the melting temperature (Tm) was 54.7 °C.

As for “CGACGTGCCGTATGTGCTG+CAGCACATCTCGCACGTCG ((((((((...((((((((+))))))))...))))))))”, the Tm was 48.5 °C.

“CGACGTGCGGCATGTGCTG+CAGCACATTTAGCACGTCG ((((((((...((((((((+))))))))...))))))))”: the Tm amounted to 52 °C.

“CGACGTGCGGTATGTGCTG+CAGCACATATTGCACGTCG ((((((((..(((((((((+)))))))))..))))))))”: the Tm amounted to 55 °C.

In the case of “CGACGTGCAGGATGTGCTG+CAGCACATGCCGCACGTCG ((((((((.(.((((((((+)))))))).).))))))))”, the Tm came out at 54 °C.

Take “CGACGTGCTTCATGTGCTG+CAGCACATGGCGCACGTCG ((((((((..(((((((((+)))))))))..))))))))”: the Tm was 53 °C.

For “CGACGTGCCCCATGTGCTG+CAGCACATATTGCACGTCG ((((((((...((((((((+))))))))...))))))))”, the Tm amounted to 46.1 °C.
